Biological target: the molecule itself
Test: cross-linking

B1: BrlR-His6V5 (Biofilm resistance locus Regulator with a C-terminal His6V5-tag) (natural protein, Pseudomonas aeruginosa PAO1, UniProt Q9HUT5 1-270, looked up)
chain: MLTIGQLARIFEISTKTLRHYDAIGLFVPARTGSDNGYRYYQPEQIEQLSRILALRRLDVPLEAIDRLKRDGALDDPQRLRHFLQRHQHTLREEISARQRLLAELDRTLATLAHWRIRNMHARIVERPAFSVVGMEYFGSAPGDTIGQLWERFIPREHEIAGKHDPEVSYGICAQQPNGEFHYVAGFEVQEGWPVPEGMVRFQVPAQKYAVFTHKGTAPQIAESFQAIYSHLLAERGLEPKAGVDFEYYDQRFRGPLDPNSQVDLYIPIY
stoichiometry N: 2

Reference: PMC4000578 (Molecular microbiology, 2014)
